Results reported in patent publication US20240150445A1.
Substitutions are numbered along the chain they refer to.

B1: DH270.IA4 (antibody, V domains shown)
VH: QVQLVQSGAEVKKPGASVKVSCKASGYTFTDYYIHWVRQAPGQGLEWMGWINPNTGRTNYAQKFQGRVTMTRDTSISTAYMELSRLRSDDTAVYYCARGGWIGLYYDSSGYPNFDYWGQGTLVTVSS
VL: QSALTQPASVSGSPGQSITISCTGTSYDVGSYNLVSWYQQHPGKAPKLMIYEVSKRPSGVSNRFSGSKSGNTASLTISGLQAEDEADYYCCSYAGSSTVIFGGGTKLTVL
B2: DH270.1 (antibody, V domains shown)
VH: B1 VH with V11M, T69I, R87T, R98T
VL: B1 VL with L48Y, S54N
B3: DH270.6 (antibody, V domains shown)
VH: QVQLVQSGAQMKNPGASVKVSCAPSGYTFTDFYIHWLRQAPGQGLQWMGWMNPQTGRTNTARNFQGRVIMTRDTSIGTAYMELRSLTSDDTAIYYCTTGGWISLYYDSSYYPNFDHWGQGTLLTVSS
VL: TSLLTQPASVSGSPGQSITISCTGTKYDVGSHDLVSWYQQYPGKVPKYMIYEVNKRPSGVSNRFSGSKSGNTASLTISGLRAEDEADYYCCSFGGSATVVCGGGTKVTVL
B4: DH270.2 (antibody, V domains shown)
VH: QVQLVQSGAEMKKPGASVRVSCKASGYTFTDYYIHWVRQAPGQGPEWMGWINPSTGRTNSPQKFQGRVIMTRDTSISTAYMDLNRLTSDDTAMYYCTTGGWIGLYSDTSGYPNFDYWGQGTLVTVSS
VL: B1 VL with S26N, A45V, L48Y, M49I, S54N, T98I, V99I, I100F, L110I
B5: DH270.3 (antibody, V domains shown)
VH: QVQLVQSGAEMKNPGASVKVSCAASGYTFTDFYIHWVRLAPGQGLEWMGWMNPKTGRTNNAQNFQGRVIMTRDTSIGTAYMELRRLTSDDTAVYYCVTGGWISPYYDSSYYPNFDHWGQGTLVTVSS
VL: B3 VL with T1Q, L3A, K26S, S31K, H32F, Y41H, V45A, R56W, N62H, R81Q
B6: DH270.4 (antibody, V domains shown)
VH: B5 VH with Q1E, T28G, Q43H, E46Q, N63D, M70L, V123I
VL: QSALTQPASVSGSPGQSITISCTGTSYDVAKFDLVSWFQQHPGKAPKYMIYEVNKWPSGVSHRFSGSKSGNTASLTISGLQAEDEADYYCCSFGGSATVVCGGGTKVTVL
B7: DH270.5 (antibody, V domains shown)
VH: B5 VH with M11V, A24P, M48L, N60Q, A61G, R85S, G100A, P104D
VL: LPVLTQPASVSGSPGQSITISCTGTIYDVGKFDLVSWYQHHPGKAPKYLIYEVKKWPSGVSHRFSGSKSGNTASLTISGLQVEDEADYYCCSFGGSAAVVCGGGTKVTVL

target: Man9-V3 glycopeptide; experiment: biolayer interferometry, biotinylated peptide on streptavidin sensors

Compared with B1, B2 is lower in Kd: greater than 10000 nM for the first, 331 nM for the second.

B3 showed a Kd of 188 nM.

target: Man9-V3 glycopeptide; experiment: biolayer interferometry, biotinylated Man9-V3 on streptavidin sensors, antibody in solution; inset curves (100, 50, 25 µg/mL) after subtraction of the palivizumab signal

Work on B1 yielded a Kd greater than 10000 nM.

target: Man9-V3 glycopeptide; experiment: biolayer interferometry, biotinylated Man9-V3 on streptavidin sensors, antibody in solution, global fit to the bivalent avidity model

Going from B2 to B4, the koff rises from 0.00051 s⁻¹ to 0.0081 s⁻¹ (16-fold).

B5 and B6 are within 1.5-fold of each other in koff: 0.000778 s⁻¹ for the first, 0.00052 s⁻¹ for the second.

First: B3
Second: B7
The koff of the first is 2.5-fold lower: 0.00037 s⁻¹ for the first, 0.00091 s⁻¹ for the second.

B2 and B4 are within 1.5-fold of each other in kon: 1540 M⁻¹ s⁻¹ for the first, 1710 M⁻¹ s⁻¹ for the second.

Going from B5 to B6, the kon falls from 4000 M⁻¹ s⁻¹ to 1500 M⁻¹ s⁻¹ (2.7-fold).

First: B3
Second: B7
The kon of the first is 1.7-fold lower: 1970 M⁻¹ s⁻¹ for the first, 3300 M⁻¹ s⁻¹ for the second.
